Positions count from the first letter of the chain named. Where no end group is shown, it is not given here.
T1: TDP-3 peptide (human)
T1 construct: Irrelevant control peptide; conjugated to Luminex beads in the assay; also called TDP-43 aa 310-370; irrelevant target
T1 peptide: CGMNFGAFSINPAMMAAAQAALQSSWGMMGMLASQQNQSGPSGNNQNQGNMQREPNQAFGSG

T2: TDP-216 peptide (human)
T2 construct: 8-mer of human TDP-43; same ELISA method as for the biotinylated 15-mers
T2 peptide: DVMDVFIP

T3: TDP-212 peptide (human)
T3 construct: 8-mer of human TDP-43; same ELISA method as for the biotinylated 15-mers
T3 peptide: SQYGDVMD

T4: TDP-222 peptide (human)
T4 construct: 8-mer of human TDP-43; same ELISA method as for the biotinylated 15-mers
T4 peptide: IPKPFRAF

T5: TDP-217 peptide (human)
T5 construct: 8-mer of human TDP-43; same ELISA method as for the biotinylated 15-mers
T5 peptide: VMDVFIPK

T6: TP-26 (also: biotinylated, site not given here)
T6 construct: also called TP-26 peptide
T6 peptide: FRAFAFVTFADDQIA

T7: TP-28 (also: biotinylated, site not given here)
T7 construct: also called TP-28 peptide
T7 peptide: CGEDLIIKGISVHIS

T8: TP-27 (also: biotinylated, site not given here)
T8 construct: also called TP-27 peptide
T8 peptide: ADDQIAQSLCGEDLI

T9: TP-30 (also: biotinylated, site not given here)
T9 construct: also called TP-30 peptide
T9 peptide: PKHNSNRQLERSGRF

T10: TP-29 (also: biotinylated, site not given here)
T10 construct: also called TP-29 peptide
T10 peptide: ISVHISNAEPKHNSN

T11: TP-23 (also: biotinylated, site not given here)
T11 construct: also called TP-23 peptide
T11 peptide: TEDMTEDELREFFSQ

T12: TP-31 (also: biotinylated, site not given here)
T12 construct: also called TP-31 peptide
T12 peptide: ERSGRFGGNPGGFGN

B1: ACI-7062-410H3-Ab1 (antibody, IgG1, V domains shown)
VH: DVQLVESGGGLVQPGGSRRLSCAASGFTFSSFGMHWVRQAPEKGLEWVAYIRSGSDIIYYADSVKGRFTISRDNPENTLFLQMTSLRSEDTAMYYCARSGTTVPFDYWGQGTSLTVSS
VL: DIVMTQSPSSLAMSVGQKVTMSCKSSQSLLNSGNQKNYLAWYQQKPGQSPELLLYFASTRASGVPDRFIGSGSGTDFTLTISSVQAEDLADYFCQQHYSIPLTFGAGTKLELKR
notes: also called 410H3B9; clone 7
B2: ACI-7062-412A7-Ab1 (antibody, IgG2b, V domains shown)
VH: B1 VH
VL: B1 VL
notes: also called 412A7B7; clone 9
B3: ACI-7062-406E3-Ab1 (antibody, IgG2a, V domains shown)
VH: QVTLKESGPAILQPSQTLSLTCSFSGFSLTTYGIGVGWIRQPSGKGLEWLAHIWWNDNKYYNTALKSRLTVSKDTSNNQVFLKIASVDTADTATYYCARVYGNLYYFAYWGQGTTLTVSS
VL: DVLMTQTPLSLPVSLGDRASISCRSSQSIVHRSGNTYLEWYLQKPGQSPKLLIYKVSNRFSGVPDRFSGSGSGTDFTLKISRVEAEDLGVYYCFQGSHVPTFGAGTKLELKR
notes: also called 406E3D5; clone 5
B4: ACI-7062-406E3-Ab2 (antibody, IgG2a, V domains shown)
VH: B3 VH
VL: B3 VL
notes: also called 406E3G10; clone 6
B5: ACI-7062-416A11-Ab1 (antibody, IgG2a, V domains shown)
VH: B3 VH with A10G, P14S, T30S, V71I, T92A, A108G
VL: B3 VL with R32S, H98R
notes: also called 416A11B3; clone 18

Target: T1, TDP-3 peptide
Experiment: Luminex bead assay, TDP-3 peptide beads (irrelevant target)

| binding result | Binder |
| --- | --- |
| no binding | B1 |
| no binding | B2 |
| no binding | B3 |
| no binding | B4 |
| no binding | B5 |

target: T13, recombinant human full-length TDP-43 (human, UniProt Q13148 1-414); experiment: Luminex bead assay, antibody serial dilution, FL TDP-43 beads
T13 construct: Recombinant full-length protein; also called FL TDP-43; recFL TDP-43
T13 sequence (Q13148 whole entry): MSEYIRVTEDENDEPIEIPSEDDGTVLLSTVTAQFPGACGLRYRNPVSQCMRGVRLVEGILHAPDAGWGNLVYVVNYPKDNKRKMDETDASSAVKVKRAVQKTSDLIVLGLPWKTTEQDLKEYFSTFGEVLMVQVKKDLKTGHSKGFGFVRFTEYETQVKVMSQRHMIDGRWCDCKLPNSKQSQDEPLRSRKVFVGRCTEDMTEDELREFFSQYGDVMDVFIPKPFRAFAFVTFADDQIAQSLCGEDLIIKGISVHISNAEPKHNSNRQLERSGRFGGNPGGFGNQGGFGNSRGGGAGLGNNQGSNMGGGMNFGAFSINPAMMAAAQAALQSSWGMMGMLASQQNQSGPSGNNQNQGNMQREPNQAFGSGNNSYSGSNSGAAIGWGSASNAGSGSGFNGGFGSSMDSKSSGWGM

| EC50 | Binder |
| --- | --- |
| 0.03 nM | B1 |
| 0.03 nM | B2 |
| < 0.01 nM | B3 |
| 0.01 nM | B4 |
| 0.015 nM | B5 |

target: T14, aggregated recombinant human FL TDP-43 (human, UniProt Q13148 1-414); experiment: SPR avidity (Biacore T200), aggregated TDP-43 immobilised, antibody as analyte, 1:1 model
T14 construct: also called TDP-43 aggregates
T14 sequence (Q13148 whole entry): as above
Description: (§1) Avidity measurements were performed on an SPR instrument (Biacore T200, GE Healthcare Life Sciences) using CM5 Series S sensor chips. Recombinant human FL TDP-43 monomers or aggregated recombinant human FL TDP-43 was immobilized on a CM5 chip using amine coupling, injecting at a flow rate of 5 μl/min for 420 seconds. Conditions were optimized so that less than 200 RU protein was immobilized. Binding of the antibodies and the control antibody (2E2-D3) were obtained by injecting at: 1.37, 4.11, 12.33, 37, 111, and 333 nM in 1×PBS P+ at a flow rate of 50 μl/min for 90 s contact time and 600 s dissociation phase, with three regeneration cycles of the ligand surface by 10 mM Glycine-HCl (pH 1.7). Kinetics were analyzed using a 1:1 fitting model (see FIG. 8).

| Kd | Binder |
| --- | --- |
| 19.2 nM | B1 |
| 0.3 nM | B2 |
| 0.2 nM | B3 |
| 0.4 nM | B4 |
| 1.2 nM | B5 |

target: T13, recombinant human full-length TDP-43; experiment: SPR avidity (Biacore T200), TDP-43 monomer immobilised, antibody as analyte, 1:1 model
Description: as §1

| Kd | Binder |
| --- | --- |
| 6 nM | B1 |
| 1 nM | B2 |
| 0.8 nM | B3 |
| 0.3 nM | B4 |
| 2.4 nM | B5 |

target: T13, recombinant human full-length TDP-43; experiment: SPR affinity (Biacore 8K), antibody captured on anti-mouse IgG, TDP-43 monomer as analyte, single cycle kinetics, 1:1 model
Description: Binding affinity to FL TDP-43 was evaluated by determining the dissociation constant (KD) using surface plasmon resonance (SPR; Biacore 8K, GE Healthcare Life Sciences). Anti-mouse IgG was immobilized on a CM5 Series S sensor chip (GE Healthcare Life Sciences) by amine coupling. Immobilization of andi-IgG was done at a concentration of 30 μg/ml in 10 mM sodium acetate (pH 5.5) with a flow rate of 10 μl/min for 500 s. The purified antibodies being tested, and the control antibody (2E2-D3), were injected at a concentration of 1 μg/ml at a flow rate of 10 μl/min for 500 s in 10 mM Na-acetate (pH 5.5). To evaluate KDs, recombinant human FL TDP-43 monomer analyte was injected at […] starting from 400 nM and diluting down to 1.6 nM using single cycle kinetics. The protein analyte was injected at a flow rate of 20 μl/min for 600 s contact time and a 1200 s dissociation phase, without intermediate regeneration steps. Result obtained from kinetics was evaluated using a 1:1 binding model analysis.

| Kd | Binder |
| --- | --- |
| 242 nM | B1 |
| 66.1 nM | B2 |
| 193 nM | B3 |
| 101 nM | B4 |
| 307 nM | B5 |

Target: T2, TDP-216 peptide
Experiment: indirect ELISA, 8-mer peptide library
Description: (§2) Serum-free supernatants were harvested from stable hybridomas. The supernatants containing antibodies of interest were then screened by an indirect ELISA assay to determine epitopes. Epitopes were mapped using a library of TDP-43 15-mer peptides. Briefly, 96-well streptavidin-coated 96-well ELISA plates were incubated with 5 μg/mL of biotinylated 15-mer peptides spanning the amino acids (aa) 199-285 of human TDP-43 with 9 aa offset and 6 aa overlap. Plates were washed thoroughly with 0.05% Tween-20/PBS and then blocked with 1% bovine serum albumin (BSA) in 0.05% Tween-20/PBS for 1 hour at 37° C. The antibody contained in the hybridoma supernatant was then added at the indicated dilutions, and incubated for 2 hours at 37° C. after which the plates were washed as described previously. An AP-conjugated anti-mouse IgG secondary antibody (Jackson ImmunoResearch Laboratories, United Kingdom) was added at 1/1000 dilution in 0.05% Tween-20/PBS for 1 hour at 37° C. After the final wash, plates were incubated with pNPP (Sigma-Aldrich, Switzerland) an AP substrate solution, and read at 405 nm using an ELISA plate reader (Tecan).
(§3) Furthermore, antibodies were tested using an indirect ELISA on a peptide library of 8-mer peptides with 7 aa overlap covering the sequence of human TDP-43 from aa 210 to aa 231, using the same ELISA method as describe previously in this section.

| binding result | Binder |
| --- | --- |
| no binding | B3 |
| no binding | B4 |
| no binding | B5 |

Target: T3, TDP-212 peptide
Experiment: indirect ELISA, 8-mer peptide library
Description: as §2, §3

| binding result | Binder |
| --- | --- |
| no binding | B1 |
| no binding | B2 |
| no binding | B3 |
| no binding | B4 |
| no binding | B5 |

Target: T4, TDP-222 peptide
Experiment: indirect ELISA, 8-mer peptide library
Description: as §2, §3

| binding result | Binder |
| --- | --- |
| no binding | B1 |
| no binding | B2 |
| no binding | B3 |
| no binding | B4 |
| no binding | B5 |

Target: T5, TDP-217 peptide
Experiment: indirect ELISA, 8-mer peptide library
Description: as §2, §3

| binding result | Binder |
| --- | --- |
| no binding | B1 |
| no binding | B2 |
| no binding | B3 |
| no binding | B4 |
| no binding | B5 |

Target: T6, TP-26
Experiment: indirect ELISA, biotinylated 15-mer on streptavidin plate, hybridoma supernatant
Description: as §2

| binding result | Binder |
| --- | --- |
| no binding | B1 |
| no binding | B2 |
| no binding | B3 |
| no binding | B4 |
| no binding | B5 |

Target: T7, TP-28
Experiment: as above
Description: as §2

| binding result | Binder |
| --- | --- |
| no binding | B1 |
| no binding | B2 |
| no binding | B3 |
| no binding | B4 |
| no binding | B5 |

Target: T8, TP-27
Experiment: as above
Description: as §2

| binding result | Binder |
| --- | --- |
| no binding | B1 |
| no binding | B2 |
| no binding | B3 |
| no binding | B4 |
| no binding | B5 |

Target: T9, TP-30
Experiment: as above
Description: as §2

| binding result | Binder |
| --- | --- |
| no binding | B1 |
| no binding | B2 |
| no binding | B3 |
| no binding | B4 |
| no binding | B5 |

Target: T10, TP-29
Experiment: as above
Description: as §2

| binding result | Binder |
| --- | --- |
| no binding | B1 |
| no binding | B2 |
| no binding | B3 |
| no binding | B4 |
| no binding | B5 |

Target: T11, TP-23
Experiment: as above
Description: as §2

| binding result | Binder |
| --- | --- |
| no binding | B1 |
| no binding | B2 |
| no binding | B3 |
| no binding | B4 |
| no binding | B5 |

Target: T12, TP-31
Experiment: as above
Description: as §2

| binding result | Binder |
| --- | --- |
| no binding | B1 |
| no binding | B2 |
| no binding | B3 |
| no binding | B4 |
| no binding | B5 |
